Test results published in publication PMC3391290.

Key:
[1] = target: TSHR-LHR-6 chimeric receptor; test: radioligand binding; membrane preparations of TSHR wild type, mutants and constructs, 125I-hTSH with increasing unlabelled hTSH; with MAb 311.87 (134 nM) (Table 5)
[2] = target: TSHR-LHR-6 chimeric receptor; test: radioligand binding; membrane preparations of TSHR wild type, mutants and constructs, 125I-hTSH with increasing unlabelled hTSH; with NMIgG (control) (Table 5)

Sequence of human thyroid stimulating hormone (hTSH) (P01215 25-116): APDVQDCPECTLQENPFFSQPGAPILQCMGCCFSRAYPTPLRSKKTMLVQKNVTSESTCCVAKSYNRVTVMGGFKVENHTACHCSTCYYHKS
Sequence of human thyroid stimulating hormone (hTSH) (P01222 21-132): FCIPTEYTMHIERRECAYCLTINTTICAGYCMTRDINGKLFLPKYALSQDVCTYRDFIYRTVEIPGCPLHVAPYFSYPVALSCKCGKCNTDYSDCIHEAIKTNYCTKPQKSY

## human thyroid stimulating hormone (hTSH) (from UniProt P01215 25-116; P01222 21-132) (ligand)
[1]
  Kd with MAb 311.87: 0.39 nM
[2]
  Kd: 0.27 nM
